{
  "source": "patent US10202593B2",
  "about": "“Evolved sortases and uses thereof” (President and Fellows of Harvard College, priority 2013, dated 2019)",
  "type_in_all_cases": "biochemical",
  "key": {"[1]": {"test_system": "LAETG (Abz-LAETGK(Dnp)-CONH2)", "assay": "In vitro sortase kinetics HPLC assay, LAETG substrate", "protocol": "(§1) See below for details on sortase expression and purification, and on the synthesis of Abz-LPETGK(Dnp)-CONH2 (SEQ ID NO: 19). […] Reactions were initiated with the addition of enzyme and incubated at 22.5° C. for 3 to 20 minutes before quenching with 0.5 volumes of 1 M HCl. Five to ten nmol of peptide from the quenched reactions were injected onto an analytical reverse-phase Eclipse XDB-C18 HPLC column (4.6×150 mm, 5 μm, Agilent Technologies) and chromatographed using a gradient of 10 to 65% acetonitrile with 0.1% TFA in 0.1% aqueous TFA over 13 minutes. Retention times under these conditions for the Abz-LPETGK(Dnp)-CONH2 (SEQ ID NO: 19) substrate, the released GKDnp peptide, and the Abz-LPETGGG-COOH (SEQ ID NO: 20) product were 12.8, 10.4, and 9.1 min, respectively. To calculate the percent conversion, the ratio of the integrated areas of the Abz-LPETGGG-COOH (SEQ ID NO: 20) and Abz-LPETGK(Dnp)-CONH2 (SEQ ID NO: 19) peptide Abs220 peaks was compared to a standard curve generated by mixing the product and starting peptide in known ratios. To determine […] and Km, reaction rates were fit to the Michaelis-Menten equation using OriginPro 7.0 software. All kinetics values reported represent the average of at least three measurements. Percent conversion was also calculated by using the ratio of the integrated areas of the GK(Dnp)-CONH2 and Abz-LPETGK(Dnp)-CONH2 peptide Abs355 peaks were compared directly (Example 5). To determine kcat and Km, LPETG, reaction rates were fit to the Michaelis-Menten equation using Microsoft Excel using the Solver add-in. To determine Km,GGG and KH, reaction rates were fit to the modified Michaelis-Menten, for which KH is as defined when KH<<Km,GGG.\n(§2) Assays to determine eSrtA, eSrtA(2A-9) and eSrtA(4S-9) specificity were performed by preparing 10 μM stocks of Abz-LXEXGK(Dnp) (SEQ ID NO: 75) peptides in 300 mM Tris pH 7.5, 150 mM NaCl, 5 mM CaCl2, 5% v/v DMSO, and 100 mM Gly-Gly-Gly-COOH (GGG). Reactions were performed by adding eSrtA(2A-9) to a final concentration of 450 nM, eSrtA(4S-9) to a final concentration of 115 nM or eSrtA to a final concentration of 47.5 nM and a final volume of 100 μL, then incubating at 22.5° C. for 15 minutes. Reactions were quenched by the addition of 0.2 volumes of 5 M HCl, then were injected onto an analytical reverse-phase Eclipse XDB-C18 HPLC column (4.6×150 mm, 5 μm, Agilent Technologies) and chromatographed using a gradient of 10 to 65% acetonitrile with 0.1% TFA in 0.1% aqueous TFA over 13 minutes. Retention times under these conditions for the Abz-LPETGK(Dnp)-CONH2 (SEQ ID NO: 19) substrate, the released GKDnp peptide, and the Abz-LPETGGG-COOH (SEQ ID NO: 20) product were 12.8, 10.4, and 9.1 min, respectively, while the remaining Abz-LXEXGK(Dnp)-CONH2 (SEQ ID NO: 74) substrates varied in retention time between 9 and 13 minutes. To calculate the percent conversion, the ratio of the integrated areas of the GK(Dnp)-CONH2 and Abz-LPETGK(Dnp)-CONH2 (SEQ ID NO: 19) peptide Abs355 peaks were compared directly. Subsequent determination of kcat/Km and KH were performed as described for in vitro SrtA characterization.\n(§3) In each case, rate constants were determined by measuring enzyme velocity at eight different substrate concentrations by HPLC assay, then fit using nonlinear regression to the Michaelis-Menten equation, yielding kcat and Km. KH was calculated by measuring enzyme velocity at 1 mM target substrate and eight different GGG concentrations by HPLC assay, then fitting the resulting curves using nonlinear regression to the modified Michaelis-Menten equation."}, "[2]": {"test_system": "LPETG (Abz-LPETGK(Dnp)-CONH2)", "assay": "In vitro sortase kinetics HPLC assay, LPETG substrate", "conditions": "substrate wt (LPETG)", "protocol": "as §1, §2, §3"}, "[3]": {"test_system": "LPESG (Abz-LPESGK(Dnp)-CONH2)", "assay": "In vitro sortase kinetics HPLC assay, LPESG substrate", "conditions": "for Specificity: 4S (LPESG) over wt (LPETG)", "protocol": "as §1, §2, §3"}, "[4]": {"conditions": "GGG varied, substrate 2A (LAETG)"}, "[5]": {"conditions": "Example 5 variants, read-out: Avg KM"}, "[6]": {"conditions": "Example 5 variants, substrate 4S (LPESG)"}, "[7]": {"conditions": "Example 5 variants, substrate 4S (LPESG), read-out: Avg KM"}},
  "note": "Where two headings read alike, the source gives them in different places.",
  "data": [
    {"molecule": "eSrtA(2A-6): round 6 consensus variant targeting LAETG; kinetics close to 2A.6A (protein) QAKPQIPKDKSKVAGYIEIPDADIKEPVYPGPATREQLNRGVSFHEENESLDDQNISIAGHTFIDRPNYQFTNLKAAKVGSMVYFKVGNETRKYKMTSIRNVRPTAVEVLDEQKGKDKQLTLVTCDDYNEETGVWETRKIFVATEVK", "values": [
      {"measurement": "Avg kcat (Hz)", "setting": "[1]; Example 5 variants, substrate 2A (LAETG)", "result": 2.579, "unit": "Hz"},
      {"measurement": "Km", "setting": "[1]; Example 5 variants, substrate 2A (LAETG), read-out: Avg KM", "result": 0.665, "unit": "mM"},
      {"measurement": "KH", "setting": "[1]; GGG concentration at which hydrolysis and transpeptidation rates are equal, 2A (LAETG) variant", "result": "149 ± 63", "unit": "µM"},
      {"measurement": "Avg kHydro (Hz)", "setting": "[1]; [4]", "result": 0.2347, "unit": "Hz"},
      {"measurement": "Avg kcat (Hz)", "setting": "[1]; [4]", "result": 1.734, "unit": "Hz"},
      {"measurement": "Km", "setting": "[1]; KM for GGG, substrate 2A (LAETG), read-out: Avg KM", "result": 1.11, "unit": "mM"},
      {"measurement": "Specificity (relative catalytic efficiency, fold)", "setting": "[1]; ratio of kcat/KM between 2A (LAETG) and wt (LPETG)", "result": 82.4, "unit": "fold"},
      {"measurement": "Avg KH", "setting": "[1]; substrate 2A (LAETG)", "result": 148.9406, "unit": "µM"},
      {"measurement": "Avg kcat (Hz)", "setting": "[2]; Example 5 variants", "result": 0.1622, "unit": "Hz"},
      {"measurement": "Km", "setting": "[2]; [5]", "result": 3.4, "unit": "mM"}
    ]},
    {"molecule": "eSrtA(4S-3.5) (protein) QAKPQIPKDKSKVAGYIEIPDADIKEPVYPGPATREQLNRGVSFTEENESLDDQNISITGHTFIDRPNYQFTNLKAAKKGSMVYFKVGNETRKYKMTSIRNVKPTAVEVLDEQKGKDKQLTLVTCDDYNEETGVWETRKIFVATEVK", "values": [
      {"measurement": "Avg kcat (Hz)", "setting": "[3]; [6]", "result": 5.779, "unit": "Hz"},
      {"measurement": "Km", "setting": "[3]; [7]", "result": 38.8, "unit": "mM"},
      {"measurement": "lower activity than that of eSrtA on its native LPETG substrate", "setting": "[3]; minimal mutant, LPETG and LPESG processed", "result": "~100", "unit": "fold"},
      {"measurement": "Specificity", "setting": "[3]; ratio of kcat/KM", "result": 1.454},
      {"measurement": "kcat, 10 mM GGG (Hz)", "setting": "[3]; substrate 4S (LPESG), 10 mM GGG", "result": 1.118, "unit": "Hz"},
      {"measurement": "Km", "setting": "[3]; substrate 4S (LPESG), read-out: Km, LxExG", "result": 7.31, "unit": "mM"},
      {"measurement": "Avg kcat (Hz)", "setting": "[2]; Example 5 variants", "result": 5.482, "unit": "Hz"},
      {"measurement": "Km", "setting": "[2]; [5]", "result": 39.3, "unit": "mM"}
    ]},
    {"molecule": "2A.6A: 5mut + A104H K138V K162R I182V (protein) QAKPQIPKDKSKVAGYIEIPDADIKEPVYPGPATREQLNRGVSFHEENESLDDQNISIAGHTFIDRPNYQFTNLKAAKVGSMVYFKVGNETRKYKMTSIRNVRPTAVEVLDEQKGKDKQLTLVTCDDYNEETGVWETRKIFVATEVK", "values": [
      {"measurement": "Khydrolysis", "setting": "[1]; 1 mM 2A (LAETG) substrate", "result": 135.8, "unit": "µM"},
      {"measurement": "kcat, 1 mM LxExG (Hz)", "setting": "[1]; 1 mM 2A (LAETG) substrate, GGG varied", "result": 1.714, "unit": "Hz"},
      {"measurement": "Km", "setting": "[1]; 1 mM 2A (LAETG) substrate, read-out: Km, GGG", "result": 1.04, "unit": "mM"},
      {"measurement": "specificity (relative cat. Efficiency, fold)", "setting": "[1]; ratio of kcat/Km between 2A (LAETG) and wt (LPETG) substrates, favoured over disfavoured", "result": 86.36, "unit": "fold"},
      {"measurement": "kL/KL/KH", "setting": "[1]; substrate 2A (LAETG)", "result": "3.04E+07"},
      {"measurement": "kHydrolysis (Hz)", "setting": "[1]; substrate 2A (LAETG), 1 mM, GGG varied", "result": 0.2252, "unit": "Hz"},
      {"measurement": "kcat, 10 mM GGG (Hz)", "setting": "[1]; substrate 2A (LAETG), 10 mM GGG", "result": 2.47, "unit": "Hz"},
      {"measurement": "Km", "setting": "[1]; substrate 2A (LAETG), read-out: Km, LxExG", "result": 0.608, "unit": "mM"},
      {"measurement": "kcat, 10 mM GGG (Hz)", "setting": "[2]; 10 mM GGG", "result": 0.1572, "unit": "Hz"},
      {"measurement": "Km", "setting": "[2]; read-out: Km, LxExG", "result": 3.29, "unit": "mM"}
    ]},
    {"molecule": "eSrtA(4S-3): round 3 LPESG clone: eSrtA + N98S A104T A118T F122S D124G K134R K173E K177E I182V (protein) QAKPQIPKDKSKVAGYIEIPDADIKEPVYPGPATREQLSRGVSFTEENESLDDQNISITGHTSIGRPNYQFTNLRAAKKGSMVYFKVGNETRKYKMTSIRNVKPTAVEVLDEQEGKDEQLTLVTCDDYNEETGVWETRKIFVATEVK", "values": [
      {"measurement": "Avg kcat (Hz)", "setting": "[3]; [6]", "result": 2.543, "unit": "Hz"},
      {"measurement": "Km", "setting": "[3]; [7]", "result": 3.33, "unit": "mM"},
      {"measurement": "preference for LPESG over LPETG", "setting": "[3]; ratio of kcat/KM", "result": 245, "unit": "fold"},
      {"measurement": "Specificity", "setting": "[3]; ratio of kcat/KM", "result": 244.976},
      {"measurement": "reduced catalytic efficiency", "setting": "[3]; round 3 clone, LPESG target", "result": "> 10", "unit": "fold"},
      {"measurement": "Avg kcat (Hz)", "setting": "[2]; Example 5 variants", "result": 0.007565, "unit": "Hz"},
      {"measurement": "Km", "setting": "[2]; [5]", "result": 3.39, "unit": "mM"}
    ]}
  ]
}
